The text below walks through data of publication PMC8754640 (Nucleic Acids Research, 2021).

B1: Flag-1–2–3 (2–299) (domain or fragment, UniProt P11940 2-299, looked up)
chain: NPSAPSYPMASLYVGDLHPDVTEAMLYEKFSPAGPILSIRVCRDMITRRSLGYAYVNFQQPADAERALDTMNFDVIKGKPVRIMWSQRDPSLRKSGVGNIFIKNLDKSIDNKALYDTFSAFGNILSCKVVCDENGSKGYGFVHFETQEAAERAIEKMNGMLLNDRKVFVGRFKSRKEREAELGARAKEFTNVYIKNFGEDMDDERLKDLFGKFGPALSVKVMTDESGKSKGFGFVSFERHEDAQKAVDEMNGKELNGKQIYVGRAQKKVERQTELKRKFEQMKQDRITRYQGVNLYVK
B2: His-PABP 4EA mutant-Flag (natural protein, UniProt P11940 2-636, looked up)
chain: NPSAPSYPMASLYVGDLHPDVTEAMLYEKFSPAGPILSIRVCRDMITRRSLGYAYVNFQQPADAERALDTMNFDVIKGKPVRIMWSQRDPSLRKSGVGNIFIKNLDKSIDNKALYDTFSAFGNILSCKVVCDENGSKGYGFVHFETQEAAERAIEKMNGMLLNDRKVFVGRFKSRKARAAALGARAKAFTNVYIKNFGEDMDDERLKDLFGKFGPALSVKVMTDESGKSKGFGFVSFERHEDAQKAVDEMNGKELNGKQIYVGRAQKKVERQTELKRKFEQMKQDRITRYQGVNLYVKNLDDGIDDERLRKEFSPFGTITSAKVMMEGGRSKGFGFVCFSSPEEATKAVTEMNGRIVATKPLYVALAQRKEERQAHLTNQYMQRMASVRAVPNPVINPYQPAPPSGYFMAAIPQTQNRAAYYPPSQIAQLRPSPRWTAQGARPHPFQNMPGAIRPAAPRPPFSTMRPASSQVPRVMSTQRVANTSTQTMGPRPAAAAAAATPAVRTVPQYKYAAGVRNPQQHLNAQPQVTMQQPAVHVQGQEPLTASMLASAPPQEQKQMLGERLFPLIQAMHPTLAGKITGMLLEIDNSELLHMLESPESLRSKVDEAVAVLQAHQAKEAAQKAVNSATGVPTV
B3: GST-CTD (residues 372–636) (domain or fragment, UniProt P11940 372-636, looked up)
chain: EERQAHLTNQYMQRMASVRAVPNPVINPYQPAPPSGYFMAAIPQTQNRAAYYPPSQIAQLRPSPRWTAQGARPHPFQNMPGAIRPAAPRPPFSTMRPASSQVPRVMSTQRVANTSTQTMGPRPAAAAAAATPAVRTVPQYKYAAGVRNPQQHLNAQPQVTMQQPAVHVQGQEPLTASMLASAPPQEQKQMLGERLFPLIQAMHPTLAGKITGMLLEIDNSELLHMLESPESLRSKVDEAVAVLQAHQAKEAAQKAVNSATGVPTV
B4: Flag-C (372–636) (domain or fragment, UniProt P11940 372-636, looked up)
chain: B3 chain
B5: Flag-1–2–3–4 (2–371) (domain or fragment, UniProt P11940 2-371, looked up)
chain: NPSAPSYPMASLYVGDLHPDVTEAMLYEKFSPAGPILSIRVCRDMITRRSLGYAYVNFQQPADAERALDTMNFDVIKGKPVRIMWSQRDPSLRKSGVGNIFIKNLDKSIDNKALYDTFSAFGNILSCKVVCDENGSKGYGFVHFETQEAAERAIEKMNGMLLNDRKVFVGRFKSRKEREAELGARAKEFTNVYIKNFGEDMDDERLKDLFGKFGPALSVKVMTDESGKSKGFGFVSFERHEDAQKAVDEMNGKELNGKQIYVGRAQKKVERQTELKRKFEQMKQDRITRYQGVNLYVKNLDDGIDDERLRKEFSPFGTITSAKVMMEGGRSKGFGFVCFSSPEEATKAVTEMNGRIVATKPLYVALAQRK
B6: Flag-Linker (372–543) (domain or fragment, UniProt P11940 372-543, looked up)
chain: EERQAHLTNQYMQRMASVRAVPNPVINPYQPAPPSGYFMAAIPQTQNRAAYYPPSQIAQLRPSPRWTAQGARPHPFQNMPGAIRPAAPRPPFSTMRPASSQVPRVMSTQRVANTSTQTMGPRPAAAAAAATPAVRTVPQYKYAAGVRNPQQHLNAQPQVTMQQPAVHVQGQE
B7: GST-RRM2-3 (residues 97–299) (domain or fragment, UniProt P11940 97-299, looked up)
chain: GVGNIFIKNLDKSIDNKALYDTFSAFGNILSCKVVCDENGSKGYGFVHFETQEAAERAIEKMNGMLLNDRKVFVGRFKSRKEREAELGARAKEFTNVYIKNFGEDMDDERLKDLFGKFGPALSVKVMTDESGKSKGFGFVSFERHEDAQKAVDEMNGKELNGKQIYVGRAQKKVERQTELKRKFEQMKQDRITRYQGVNLYVK
B8: Flag-2–3 (97–299) (domain or fragment, UniProt P11940 97-299, looked up)
chain: B7 chain
B9: Flag-linker2-RRM3 (176–299) (domain or fragment, UniProt P11940 176-299, looked up)
chain: RKEREAELGARAKEFTNVYIKNFGEDMDDERLKDLFGKFGPALSVKVMTDESGKSKGFGFVSFERHEDAQKAVDEMNGKELNGKQIYVGRAQKKVERQTELKRKFEQMKQDRITRYQGVNLYVK

One series concerns the target GST-PABP WT (UniProt P11940 1-636). The series can be described thus: co-IP.
The series “SEC” concerns the molecule itself. The series can be described thus: SEC. In general terms: In gel filtration, larger molecules generally elute earlier.
The target in another series is His-PABP WT-Flag (UniProt P11940 2-636). The series can be described thus: co-IP.
The target of the series “Flag-C (372–636)” is B4. The series can be described thus: co-IP.
The target in series [1] is B3. The series can be described thus: co-IP.
The series “Flag-1–2–3–4 (2–371)” concerns the target B5. Briefly: co-IP.
The series “Flag-2–3 (97–299)” has as its target B8. Briefly: co-IP.
Series [2] deals with B7. The series can be described thus: pull-down.
Series [3] addresses B7. The series can be described thus: co-IP.

Turning to B1, in the series with GST-PABP WT, the binding result is given as “binds”.

As for B2, the “stoichiometry N” value in “SEC” was found to be 2.

Consider B3, for which the binding result in the series with His-PABP WT-Flag and with Flag-C (372–636) was “binds” throughout.

On to B4, for which the binding result with GST-PABP WT is listed as “binds”.

As to B5, in the series with GST-PABP WT, the binding result is recorded as “binds”.

B6: the binding result in series [1] was “binds”.

As for B7, the binding result with Flag-1–2–3–4 (2–371) and with Flag-2–3 (97–299) was “binds” throughout.

For B8, the binding result (in series [2]; with GST-PABP WT) was “binds” each time.

As for B9, in series [3], the binding result is “binds”.

Broadly, the stoichiometry N is the number of molecules, sites or subunits per partner or assembly.
